Paper PMC11996679, “Molecular basis of human nuclear and mitochondrial tRNA 3′ processing” (Nature Structural & Molecular Biology, 2024)
Positions count from the first letter of the chain named.

T1: ELAC2 (cryo-EM);TRMT10C;SDR5C1 (Homo sapiens;Homo sapiens;Homo sapiens, UniProt Q9BQ52;Q7L0Y3;Q99714 32-826;40-403;1-261, ||)
T1 sequence 1: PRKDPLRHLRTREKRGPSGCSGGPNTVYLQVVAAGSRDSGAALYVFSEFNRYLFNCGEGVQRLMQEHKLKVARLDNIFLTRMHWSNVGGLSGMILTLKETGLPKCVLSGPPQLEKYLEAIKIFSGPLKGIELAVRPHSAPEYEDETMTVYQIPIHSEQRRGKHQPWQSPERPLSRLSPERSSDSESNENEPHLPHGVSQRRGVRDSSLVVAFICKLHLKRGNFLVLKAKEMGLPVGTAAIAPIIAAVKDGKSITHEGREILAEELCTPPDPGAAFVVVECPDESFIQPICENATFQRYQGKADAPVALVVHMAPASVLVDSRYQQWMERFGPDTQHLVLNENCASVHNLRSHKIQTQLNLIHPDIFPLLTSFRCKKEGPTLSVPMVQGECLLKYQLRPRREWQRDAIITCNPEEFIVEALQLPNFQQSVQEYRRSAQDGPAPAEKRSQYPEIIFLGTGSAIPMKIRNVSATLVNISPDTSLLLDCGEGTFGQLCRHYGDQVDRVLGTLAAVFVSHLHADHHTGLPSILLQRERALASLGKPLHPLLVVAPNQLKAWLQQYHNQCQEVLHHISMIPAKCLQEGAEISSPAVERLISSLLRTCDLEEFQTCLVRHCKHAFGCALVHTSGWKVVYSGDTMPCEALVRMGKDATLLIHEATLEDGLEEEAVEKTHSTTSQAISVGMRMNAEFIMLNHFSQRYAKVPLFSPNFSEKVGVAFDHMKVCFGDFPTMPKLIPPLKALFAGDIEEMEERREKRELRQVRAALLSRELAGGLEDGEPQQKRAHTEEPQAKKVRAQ
T1 sequence 2: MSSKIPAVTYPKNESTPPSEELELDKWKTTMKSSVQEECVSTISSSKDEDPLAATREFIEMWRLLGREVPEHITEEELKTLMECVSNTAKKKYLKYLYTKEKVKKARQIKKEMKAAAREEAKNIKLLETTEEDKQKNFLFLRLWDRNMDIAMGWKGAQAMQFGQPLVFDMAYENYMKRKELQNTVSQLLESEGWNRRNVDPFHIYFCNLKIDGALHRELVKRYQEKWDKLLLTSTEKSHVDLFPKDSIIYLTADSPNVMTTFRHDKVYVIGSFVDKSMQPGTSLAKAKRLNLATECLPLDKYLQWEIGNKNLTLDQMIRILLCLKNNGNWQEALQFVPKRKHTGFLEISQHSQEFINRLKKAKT
T1 sequence 3: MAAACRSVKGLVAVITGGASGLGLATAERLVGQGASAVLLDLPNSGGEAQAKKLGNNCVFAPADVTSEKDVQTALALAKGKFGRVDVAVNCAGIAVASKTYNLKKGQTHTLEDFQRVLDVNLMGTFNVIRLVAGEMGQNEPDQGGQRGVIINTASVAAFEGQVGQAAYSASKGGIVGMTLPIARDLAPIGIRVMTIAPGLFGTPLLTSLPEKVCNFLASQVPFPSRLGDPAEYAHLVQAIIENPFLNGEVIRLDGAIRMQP

T2: Δ1–31 ELAC2-Asp550Asn (human, UniProt Q9BQ52 32-826, Asp550Asn)
T2 construct: Cloned in the 438-B vector (Addgene plasmid 55219) with an N-terminal 6xHis tag and a TEV site; the tag was removed with TEV protease; also called ELAC2^mut; ELAC2(D550N); source: Hi-Five insect cells (baculovirus), purified (HisTrap, TEV cleavage, heparin, Superdex 200); not shown: 6xHis, N-terminal, cleaved
T2 sequence (looked up): T1 sequence 1 with D519N

B1: 5-tRNAGln-24 Trailer(Tyr) (structured_RNA)
RNA: GGUGAUAGGAUGGGGUGUGAUAGGUGGCACGGAGAAUUUUGGAUUCUCAGGGAUGGGUUCGAUUCUCAUAGUCCUAGGCUCCGAGGUGAUUUUCAAGCUCG
B2: Δ1–91 TRMT10C (enzyme, human, UniProt Q7L0Y3 92-403, looked up)
chain: AATREFIEMWRLLGREVPEHITEEELKTLMECVSNTAKKKYLKYLYTKEKVKKARQIKKEMKAAAREEAKNIKLLETTEEDKQKNFLFLRLWDRNMDIAMGWKGAQAMQFGQPLVFDMAYENYMKRKELQNTVSQLLESEGWNRRNVDPFHIYFCNLKIDGALHRELVKRYQEKWDKLLLTSTEKSHVDLFPKDSIIYLTADSPNVMTTFRHDKVYVIGSFVDKSMQPGTSLAKAKRLNLATECLPLDKYLQWEIGNKNLTLDQMIRILLCLKNNGNWQEALQFVPKRKHTGFLEISQHSQEFINRLKKAKT
notes: TRMT10C (MRPP1), human, Δ1–91, used for the structural studies; also called MRPP1
B3: SDR5C1 (enzyme, human)
chain: T1 sequence 3
notes: also called MRPP2; HSD17B10

Assays:
[1] = molecular target: T1, ELAC2 (cryo-EM);TRMT10C;SDR5C1; test: cryo-EM structure; mt-RNase Z Gln complex (EMD-19455); FA: 20 mM Tris-HCl pH 8, 80 mM NaCl, 40 mM KCl, 3 mM MgCl2, 5% glycerol, 2 mM DTT; 20 nM RNA; 20 min at 20 C, read at room temperature; conditions: protein: recombinant;recombinant;recombinant; tags: N-terminal 6xHis-TEV (cleaved);;; copies: 1;1;4; tRNA cloverleaf with canonical elbow
[2] = molecular target: T2, Δ1–31 ELAC2-Asp550Asn; test: cryo-EM structure; mt-RNase Z^Gln: 5–tRNA^Gln–24 first 5′ processed with Δ1–91 TRMT10C–SDR5C1 and Δ1–45 PRORP, then Δ1–31 ELAC2-Asp550Asn added, on ice 60 min; GraFix 10–30% sucrose gradient with 0–0.015% glutaraldehyde, 25 mM Na–HEPES pH 7.5, 20 mM NaCl, 20 μM ZnCl2; pre-mt-tRNA^Gln is part of the complex; conditions: both partners purified
[3] = molecular target: B2; test: as above; conditions: both partners purified

B1
binding result [1]: binds

B2
binding result [2]: binds

B3
binding result [3]: binds
